# Experimental data reported in the DeepSol protein solubility set.
# Test: soluble on expression in E. coli; label from the status in PepcDB or PDB records
row,Sequence,soluble on expression in E. coli
1,MGSDKIHHHHHHMGIRAGESGNSLSKALLEIEKEQPAPCYLLYGDAEYEISDAFTKIIDALLSPEDQALNLFVLDGEDEDPERIGENLMTPPLLPGRKVVAVRRTQLFSSRKTLKDLVKRIREQLNGKPQQAAKTFMTFLSLAGWNLEDFKGDGWKAISDKDWQTTVEGDAGEDRIKWLPQVVEVCVDLGLKGRSATGGGTDHLEAILRDGLPAGNVLLLTAESVDKRKKLFKTISELGRVLPFVVEKGEARQKNTLMDSARDLLATRGKRMSSGAWEVLGRKTGFQLRNSMAALEKLITYTGERKTIEVSDVEEVISRTREDKVFDLTAALAEKNLKGALSVLRSLREQGIHSLVILSMIVREMRLLLHARQLRNEGALPGYQPRMDYGRFQKSIYPTVKGWAGQAGDVHIELADSHPYVVFNILRNSENFSEKRLKRHLEDLLAMDLAMKSTAKDADLMLERFLIDVCRP,not soluble
2,MGGVKKNALLDYVFTKALENLTALFTQLNITAVKEIIRPLETGHEAYFVLPIDARTLKVLMIELEESIPLARLWDLDVFNAKGNLLSRTDFDLSPRTCLVCGENAKICARTHKHEIDEIVDKIQSLAQNHDFAEHIGEQVYLALIQEARLSPKPGLVDAINNGSHKDMNLHTFEQSAISLKPFFTQFVLKGMMTAHLSENQILSEIRPLGLLAEKAMFKVTDGVNTHKGAIFSFGLVCTAIGRLLAQKSLVQSAVDFDVKLICSLVAQFTQGLTDELKNYPEHLPSTAGVRLFQKYGLTGVRGEAENGFNLIQTLLPQFDEYHQLEWEHRLLILLLNLMAINSDTNVVHRGGLAGLYFIQQTAQDLLTDQHLVTDKTALTQALMKFDTACIERNLSSGGSADLLALTIFFLSFRGN,not soluble
3,MSLRVTEPEMDQNLRDAIRMVINELTSSSGEVSQWTLREITARYRNLYRIKDPFVLDYYINRYMSGLRSVYPLYINDAIERIMSNGYDRPVIVQYNGKYYETNITLKREDLDSIAIRVSQMMGKKISSGSPIAYGNLQNFRSIVTFGDDVTPFGSSLYLERRHVVADPEAMSSMKDPMVSAYLIMALENMRSIMIIGPDSPMKIAIIYHLIRMIGSEKKIAYIGENGRFDFPRNIVYMMPRERTVFSSEISRTDLINTALRQRPDFIVVNGLTARELPAAVQAITTGHPTLSSMDIDSIENFSSLFSDPSTGLSKDMISLFDVVIEIADNGEYVKAIYEYDRLEGQEVLYNVPFSADRKRKLVFSGYSGIFRRMSKVIGEDSFRQALENRMKELDGGEGHHHHHH,soluble
4,MSLKGRVAVRTVDAIPQTFAINGIFRISRGSKTSAQVIAVSIAESGYIGRGECVPYARYGETIESVMDQIRSMTPAIEAGMDLSELQSAMAPGAARNAVDCALWDLRAQKTRQSLASVIELGHELQPVLTAFTISLDAPAAMGKAAAVHEHLPILKLKLGGDGDLERVRAVRAAAPHARLMVDANEAWSIDHLRAFAPEFAAMGVELIEQPLPADADDFLKSFNSPVPLAADESCRTLMSLSKIVGKYEIANIKLDKAGGLTEALSLQAAARASGLGTMVGCMVATSLSMAPGIILAQRADVVHLDGPLLLAEDRTPSLRYSGATLYPPEPEVWGGEGHHHHHH,soluble
5,MSLPIDTWFPLAVSRNLLTPDPALHERMVAQIFQWRGDLWANPSGESAWTGDMNGVALVHEHPDFAWLRSQVEVEALQFCQALGFQTEALQLWIQRSWPVVSEPGQSIGAHHHPNAHLSAIYYLNGSGDPELGALRIFDDRPRNELVPGLAVGYGEVIAEEAALNQAWIDYPPQAGLLLMFPASTRHGVTENLTDLTRLSVSFDLYLTARSATELAPEYLAPPVNRWSPIQLREGHHHHHH,soluble
6,MIYSMTAFAHLELKKEWGNAVWEMRSVNQRFLETYFRLPEQFRHLEMSLRERLRSALTRGKVECSLRIELTNSQDKELSLNKDYAEKVIGSLQTLQALAGGGQINLVDLLRYPGVVDSQTQDLDQIGQDLCAGFEEILADFIAMRAREGANLQQLIQQRLDSISKIATQVQAQMPAILQWQKEKLQQRFDELNLQLESQRLEQEIVLTAQRVDVAEELDRLQLHVKETMAILQRGGAVGRKLDFMMQELNRESNTLASKSINADVTNSAVELKVLIEQMREQIQNLE,not soluble
7,SIETTKGGSGSYPIKTIVVLVQENRSFDHTLGWFKELNREIDGVTKSDPKSNTVSSSDTNSLRVVFGDQSQYVNPDPGHSIQDIYEQVFGKPWDSGKPDPNPGHPNMSGFAQNAERNKKGMSSAVMNGFKPNALPVYKELVQNFAICDRWFASVPASTQPNRLYVHSATSHGATSNDKKLLLEGFPQKTIFESLDEAGFSFGIYYQFPPSTLFYRNLRKLKYLTHFHQYGIQFKKDCKEGKLPNYVVVEQRWFDLLSTPANDDHPSHDVSEGQKLVKEVYEALRSSPQWNEILFIITYDEHGGFYDHVPTPVDGVPNPDGILGPPPYNFEFNRLGVRVPTFFISPWIEPGTVIHGPNGPYPRSQYEHSSIPATVKTIFKLKDFLSKRDSWAGTFESVITRDSPRQDCPETLSTPIKLRGTMAKENAQLSEFQEDLVIMAAGLKGDYKNEELIHKLCKETCVADASKYVTNAFEKFLEESRKARDRGCDENDIVYCVDDDDDHVVIPPQSHSEASNAAAQPKTQTSFFNKLFSCFIRHD,soluble
8,KFGELREISGNQYVNEVTNAEKDLWVVIHLYRSSVPMCLVVNQHLSVLARKFPETKFVKAIVNSCIEHYHDNCLPTIFVYKNGQIEGKFIGIIECGGINLKLEELEWKLSEVGAIQSDLEEN,soluble
9,MGSDKIHHHHHHMNYKELNKIFKETLSLRWDPVAVRMMRPGEEKPAQGIEPTVPLRHCQSIITARRGNCLYMPPRSHACPDGTGVLGLVEMSPKLRSGDLYLLFKKMPNIETARQMISSRPEFKAGSYEATLLAPLEKAAFEPDVVVFTLWPEQAMWLCCAQTYATGERQDFKTSGFNSACADLIVQTMTSGEMNISFGCYGARASSEIDDFELYLAIPTALLEPIAQALLKLSQKSIPEERKKIYLHPVMDKVGSRRAQSQGEGARVELFVDTERCMGDGLCVDFCPSGVLAMVEAGDRKVAQALHPDACSACYTCVGQCPQQAIQLSYN,not soluble
10,MAHHHHHHMKATKAKSGNTATNAVPFNNAPLKIVFLDCDGVVSPFGGPLFAPRQMKFLADIINGSGAQIVLSSSWRTTDFGRKEVARQLTQFGMPVFIDCTPTLPDKPRSVEILSWIDSNKRKYNIVNFVALDDINLPLSAPDRNFFARHAIVTNATTGLTEANVKQALQMLSDTNNI,soluble
11,MSLKIGKIVSVNFNQFRVKISSEIRGNSVNLAGTVYYFGNIGSYLKTTNSVGEQLICEVMSIFDSDTKLDSAAYDFDSNRELLLKPIGTITRDDRFNLGVGIFPGIYSEVNVVTFEDMELILQTGKDKELSKAIHQSFFLGESKNLINYPIDISINSFFNIHSAVLGNSGSGKSNTIAHIIQEIHKKKNNSAIGSRILIFDVNGEYKNAFTGHEISPYIKVRLLKPNIEATEDGVEPFYLPHFLMNIDEWSSFLMATDATQRPFWDKVLQESYKFYMIATHEGDDRQKLINYLRFKICNLIHILQAQGDSDTAIITTAQGILYGILTLIEMDDDLQRACQQEGVLQDLHDLNASCTIDWGRNDGKLMRAVELVENRINKDTLREVMDYRASGEEYFNYEFLKQAANLTLLEEDARGNGRVREYTSTMMTRLDFFLDNPDCAFMRKSPVGATNIDQYLDWLWQSDKTVPEKTNMVIIDTSELSKDALETLTSVTSRLHFTSRKKLKGSARREKPIHLVLDEAHRYIKKDSKYLLRENIFEQIAREGRKYALYLLVSSQRPSELSETVLSQCSNFIIHRIQNEIDMKYVYAILPYFSDDFANKIKQSVPGEALIFGNCVSMPLHVRVKQAYPEPNSENCKVHEEWFKEGHHHHHH,soluble
12,MGSDKIHHHHHHMSLKFDFSNLFEPNISGGLTDEDVKSVEEKVTSAVRNFVENTPDFAKLDRSWIDSVKSLEDWIINFDTVVVLGIGGSGLGNLALHYSLRPLNWNEMTREERNGYARVFVVDNVDPDLMSSVLDRIDPKTTLFNVISKSGSTAEVMATYSIARGILEAYGLDPREHMLITTDPEKGFLRKLVKEEGFRSLEVPPGVGGRFSVLTPVGLLSAMAEGIDIDELHEGAKDAFEKSMKENILENPAAMIALTHYLYLNKGKSISVMMAYSNRMIYLVDWYRQLWAESLGKRYNLKGEEVFTGQTPVKALGATDQHSQIQLYNEGPNDKVITFLRVENFDREIVIPETGRAELSYLARKKLSELLLAEQTGTEEALRENNRPNMRVTFDGLTPYNVGQFFAYYEAATAFMGYLLEINPFDQPGVELGKKITFALMGREGYTYEIKERSKKVIIE,soluble
13,MGSDKIHHHHHHMKNRIEDRRIKYTKMVIKQSLITLLKNKPINKVTVTEICNLADINRSTFYTHYSNPYDLLDSIEEELFEEVKSSLRDSEGETKIENTVNEIFKAIAKNKELFKIFFSSHRDYGFLIKFFGAVYNNSIDNFKSAFKSNNDAQLEYLYNYILTGNASISYKWIKNGLKESPEEMASLVNRLIVHTMSFIK,not soluble
14,MDQNPNYNFGYGQAYGSGTDHTSDSTNNYNWASQWSQPESAASLATHTFPQYVSQQQQQQQQQAQQQAQNTYAAMNPISTFMQQQQRAQTFPQKKYGQQGGAPKPSAIRNNNFGAFGGGHALSQEWVQPMSQNQMGGPQGNRFFNNQKGGPFNQNKPNWRQNKPKGPAAPKKFDSTGKSPAMLLHELFKDVSEEYTEVEGVPKKYCCTLKVNGRTFQMESVNKKAAKQKCSELVVRDLRPDVHVTPFEEGVAAKAAAPVKKEIDAASGNGQNNKRNLLQADAISNQPTPKKVSAVKKAKLQLTPVESALSLLDLMQKIIAESAEKYSPVFEASEVPKDPEIPEVEVKKEEVDTNGENVANEKKSGWRKNETMHNVTLKFVEQNKQYTKMGPSRGVLKDMVIREALRDLFNVSHADITTVARRHASNRLGHDTTILQCLNTICSILNCTLTIECEPAEDRPLGIGRAYFMAKCTIIDHNENDLKFEVKSSSLASKAMAKDWVAQETLKNYFAIDPSSCVKTDAVSSQGPCALLHAMLNKQTKQKCKIAYEFKDNVPPVAGQATTTFYCECVIDETDRYIGVGRSKKLAKSEAAMQALKKLFKIDYDPAGNYPLALTSRAMTESKVSPLCRHIAEFCKREYHQMTEYYQIPPSNLFAAFLLVNAQEEKRVLAMGSSIQYIVEPDTLSGANGTSLLHLDAIILARRAMLKAFIHELSTVDSECSIFEKKEEGKAALKPNLRLVLYSNYSPPCIHAVDDAATKKLSYVTPTNLTCVPDDVLTYEQIKETKSLRVHCTADKLFKWNTLGIQGALLSNVLHPIFIDNIFFGSEAPVSDESLSYALQGRLGPNENEREIIVESMPVQMRMHMGISHLWHRGVDSVETLDYNTGRTSKGSPSRVCKAEIFEAYRKLNGVDQAVVNYAKAKEMASEYQYEKKVFYEKLEAAGLGKWQTKPAELVDSFTLAAFD,not soluble
15,MSVLDISIIIANYNTEEFLRNCLNSIKSTVKNVKYEVIVTDNNSKDDSVTMIKNEFPWVKLIESKINGGFAYANNLAIKESSGKYIFLLNTDTVLLKDVIEKMVNYMDENKDVGLLGPKLLNRDMSHQTSVSGFPSFKREFYHIYKLKNILKIPILKKIIVAMSGKIGSKDVEQYMMNFKSIDEPREVQVLVGAALLVRRNVIDKIGMLDERYFMYYEEIDFCYQANKAGFKAVYYPNGEIIHYIGQAATKSRILEHHHHHH,soluble
16,MGSDKIHHHHHHMIHKLEMFIAVAREAHFGRAAESLGLTQPTLSTGIKQLEEMLGVQLIFRGSRYGGLTPEGQRALVWARQLVSDARTFRQEMRTARHGLSGIVRLAVIPTALTWAAHLSARFSAAHPNVRFSILSRTSAEILSMLENLEADAGLSYLDNEPLGRVTTEPLYRERHTVVAHRDSDIAMQDKVEWADLAGERLCLLTPNMQNRRIINEYFMAAGIAPEAQVESNSTVVLAAHVEAGDWITILPVDMARFLCGGKPHLVIREIEGTGMDHAVGLVAPYREPHTPVLNALISETRALAKAHA,not soluble
